Measured values published in the MegaScale stability set (Tsuboyama et al. 2023).

B1: EEHEE_rd4_0003 (parent)
chain: KKVTINGVEIKFNNPEEAVKFALELAKRLNLRIEFHGDQIKIE

Variants of: B1
Test: folding stability dG (cDNA display proteolysis); higher = more stable
Settings: PBS, room temperature

Compared with KKVTINGVEIKFNNPEEAVKFALELAKRLNERIEFHGDQIKIE [L31E], KKVTINGVEIKFNNPEEAVKFALELAKRLNFRIEFHGDQIKIE [L31F] is higher in “folding stability dG” value: 0.917 kcal/mol for the first, 2.25 kcal/mol for the second.

First: KKVTINGVEIKFNNPEEAVKFALELAKRLNGRIEFHGDQIKIE [L31G]
Second: KKVTINGVEIKFNNPEEAVKFALELAKRLNHRIEFHGDQIKIE [L31H]
The “folding stability dG” value of the first is higher: 2.42 kcal/mol for the first, 1.4 kcal/mol for the second.

Going from KKVTINGVEIKFNNPEEAVKFALELAKRLNIRIEFHGDQIKIE [L31I] to KKVTINGVEIKFNNPEEAVKFALELAKRLNKRIEFHGDQIKIE [L31K], the “folding stability dG” value falls from 2.5 kcal/mol to 1.2 kcal/mol.

Going from KKVTINGVEIKFNNPEEAVKFALELAKRLNMRIEFHGDQIKIE [L31M] to KKVTINGVEIKFNNPEEAVKFALELAKRLNNRIEFHGDQIKIE [L31N], the “folding stability dG” value falls from 2.67 kcal/mol to 0.824 kcal/mol.

Going from KKVTINGVEIKFNNPEEAVKFALELAKRLNPRIEFHGDQIKIE [L31P] to KKVTINGVEIKFNNPEEAVKFALELAKRLNQRIEFHGDQIKIE [L31Q], the “folding stability dG” value rises from 0.746 kcal/mol to 1.13 kcal/mol.

Compared with KKVTINGVEIKFNNPEEAVKFALELAKRLNRRIEFHGDQIKIE [L31R], KKVTINGVEIKFNNPEEAVKFALELAKRLNSRIEFHGDQIKIE [L31S] is higher in “folding stability dG” value: 1.34 kcal/mol for the first, 1.7 kcal/mol for the second.

Compared with KKVTINGVEIKFNNPEEAVKFALELAKRLNTRIEFHGDQIKIE [L31T], KKVTINGVEIKFNNPEEAVKFALELAKRLNVRIEFHGDQIKIE [L31V] is higher in “folding stability dG” value: 1.71 kcal/mol for the first, 2.56 kcal/mol for the second.

First: KKVTINGVEIKFNNPEEAVKFALELAKRLNWRIEFHGDQIKIE [L31W]
Second: KKVTINGVEIKFNNPEEAVKFALELAKRLNYRIEFHGDQIKIE [L31Y]
The “folding stability dG” value of the first is higher: 2.51 kcal/mol for the first, 2.14 kcal/mol for the second.

First: KKVTINGVEIKFNNPEEAVKFALELAKRLNLCIEFHGDQIKIE [R32C]
Second: KKVTINGVEIKFNNPEEAVKFALELAKRLNLDIEFHGDQIKIE [R32D]
The “folding stability dG” value of the first is higher: 2.81 kcal/mol for the first, 1.56 kcal/mol for the second.

Going from KKVTINGVEIKFNNPEEAVKFALELAKRLNLEIEFHGDQIKIE [R32E] to KKVTINGVEIKFNNPEEAVKFALELAKRLNLFIEFHGDQIKIE [R32F], the “folding stability dG” value rises from 1.64 kcal/mol to 2.12 kcal/mol.

First: KKVTINGVEIKFNNPEEAVKFALELAKRLNLGIEFHGDQIKIE [R32G]
Second: KKVTINGVEIKFNNPEEAVKFALELAKRLNLHIEFHGDQIKIE [R32H]
The “folding stability dG” value of the first is lower: 1.6 kcal/mol for the first, 2.24 kcal/mol for the second.

Compared with KKVTINGVEIKFNNPEEAVKFALELAKRLNLIIEFHGDQIKIE [R32I], KKVTINGVEIKFNNPEEAVKFALELAKRLNLKIEFHGDQIKIE [R32K] is higher in “folding stability dG” value: 2.36 kcal/mol for the first, 2.54 kcal/mol for the second.

Compared with KKVTINGVEIKFNNPEEAVKFALELAKRLNLLIEFHGDQIKIE [R32L], KKVTINGVEIKFNNPEEAVKFALELAKRLNLMIEFHGDQIKIE [R32M] is lower in “folding stability dG” value: 2.19 kcal/mol for the first, 2.07 kcal/mol for the second.

Going from KKVTINGVEIKFNNPEEAVKFALELAKRLNLNIEFHGDQIKIE [R32N] to KKVTINGVEIKFNNPEEAVKFALELAKRLNLPIEFHGDQIKIE [R32P], the “folding stability dG” value falls from 2.03 kcal/mol to 1.71 kcal/mol.

Compared with KKVTINGVEIKFNNPEEAVKFALELAKRLNLQIEFHGDQIKIE [R32Q], KKVTINGVEIKFNNPEEAVKFALELAKRLNLSIEFHGDQIKIE [R32S] is higher in “folding stability dG” value: 2.1 kcal/mol for the first, 2.17 kcal/mol for the second.

First: KKVTINGVEIKFNNPEEAVKFALELAKRLNLTIEFHGDQIKIE [R32T]
Second: KKVTINGVEIKFNNPEEAVKFALELAKRLNLVIEFHGDQIKIE [R32V]
The “folding stability dG” value of the first is lower: 2.31 kcal/mol for the first, 2.33 kcal/mol for the second.

First: KKVTINGVEIKFNNPEEAVKFALELAKRLNLWIEFHGDQIKIE [R32W]
Second: KKVTINGVEIKFNNPEEAVKFALELAKRLNLYIEFHGDQIKIE [R32Y]
The “folding stability dG” value of the first is higher: 2.2 kcal/mol for the first, 2.15 kcal/mol for the second.

Compared with KKVTINGVEIKFNNPEEAVKFALELAKRLNLRAEFHGDQIKIE [I33A], KKVTINGVEIKFNNPEEAVKFALELAKRLNLRDEFHGDQIKIE [I33D] is lower in “folding stability dG” value: 1.69 kcal/mol for the first, 0.681 kcal/mol for the second.

First: KKVTINGVEIKFNNPEEAVKFALELAKRLNLREEFHGDQIKIE [I33E]
Second: KKVTINGVEIKFNNPEEAVKFALELAKRLNLRFEFHGDQIKIE [I33F]
The “folding stability dG” value of the first is lower: 0.529 kcal/mol for the first, 1.98 kcal/mol for the second.

Going from KKVTINGVEIKFNNPEEAVKFALELAKRLNLRGEFHGDQIKIE [I33G] to KKVTINGVEIKFNNPEEAVKFALELAKRLNLRHEFHGDQIKIE [I33H], the “folding stability dG” value falls from 0.975 kcal/mol to 0.908 kcal/mol.

Going from KKVTINGVEIKFNNPEEAVKFALELAKRLNLRKEFHGDQIKIE [I33K] to KKVTINGVEIKFNNPEEAVKFALELAKRLNLRLEFHGDQIKIE [I33L], the “folding stability dG” value rises from 0.882 kcal/mol to 2.35 kcal/mol.

First: KKVTINGVEIKFNNPEEAVKFALELAKRLNLRMEFHGDQIKIE [I33M]
Second: KKVTINGVEIKFNNPEEAVKFALELAKRLNLRNEFHGDQIKIE [I33N]
The “folding stability dG” value of the first is higher: 1.92 kcal/mol for the first, 0.797 kcal/mol for the second.

First: KKVTINGVEIKFNNPEEAVKFALELAKRLNLRPEFHGDQIKIE [I33P]
Second: KKVTINGVEIKFNNPEEAVKFALELAKRLNLRQEFHGDQIKIE [I33Q]
The “folding stability dG” value of the first is higher: 1.29 kcal/mol for the first, 1.08 kcal/mol for the second.

First: KKVTINGVEIKFNNPEEAVKFALELAKRLNLRREFHGDQIKIE [I33R]
Second: KKVTINGVEIKFNNPEEAVKFALELAKRLNLRSEFHGDQIKIE [I33S]
The “folding stability dG” value of the first is lower: 0.847 kcal/mol for the first, 0.908 kcal/mol for the second.

Compared with KKVTINGVEIKFNNPEEAVKFALELAKRLNLRTEFHGDQIKIE [I33T], KKVTINGVEIKFNNPEEAVKFALELAKRLNLRVEFHGDQIKIE [I33V] is higher in “folding stability dG” value: 1.31 kcal/mol for the first, 2.67 kcal/mol for the second.

Going from KKVTINGVEIKFNNPEEAVKFALELAKRLNLRWEFHGDQIKIE [I33W] to KKVTINGVEIKFNNPEEAVKFALELAKRLNLRYEFHGDQIKIE [I33Y], the “folding stability dG” value falls from 2.08 kcal/mol to 1.74 kcal/mol.

First: KKVTINGVEIKFNNPEEAVKFALELAKRLNLRIAFHGDQIKIE [E34A]
Second: KKVTINGVEIKFNNPEEAVKFALELAKRLNLRICFHGDQIKIE [E34C]
The “folding stability dG” value of the first is lower: 2.29 kcal/mol for the first, 3.19 kcal/mol for the second.

First: KKVTINGVEIKFNNPEEAVKFALELAKRLNLRIDFHGDQIKIE [E34D]
Second: KKVTINGVEIKFNNPEEAVKFALELAKRLNLRIFFHGDQIKIE [E34F]
The “folding stability dG” value of the first is lower: 2.12 kcal/mol for the first, 2.74 kcal/mol for the second.

First: KKVTINGVEIKFNNPEEAVKFALELAKRLNLRIGFHGDQIKIE [E34G]
Second: KKVTINGVEIKFNNPEEAVKFALELAKRLNLRIHFHGDQIKIE [E34H]
The “folding stability dG” value of the first is lower: 1.96 kcal/mol for the first, 2.42 kcal/mol for the second.

With KKVTINGVEIKFNNPEEAVKFALELAKRLNLRIIFHGDQIKIE [E34I] the “folding stability dG” value was 2.93 kcal/mol.
